{"source": "patent US20250249111A1", "about": "“ERIBULIN-BASED ANTIBODY-DRUG CONJUGATES AND METHODS OF USE” (priority 2022, published 2025)", "type_in_all_cases": "in vivo, human", "key": {"[1]": {"test_system": "subjects with PROC, endometrial cancer (EC), triple negative breast cancer (TNBC), and non-small cell lung cancer (NSCLC)", "test": "Dose-response relationship for ILD across tumor types", "experimental": "MORAb-202 was administered to subjects (N=82) with PROC, endometrial cancer (EC), triple negative breast cancer (TNBC), and non-small cell lung cancer (NSCLC) over a body weight (BW)-based dose range of 0.3 to 1.2 mg/kg. All doses were administered at Q3W. A dose-response assessment was carried out to calculate a relationship between dose and ILD rate over this dose range.\nClinical pharmacology assessments were conducted to evaluate the dose relationships between MORAb-202 and objective response rates (ORR) or ILD. The dose-response relationships were calculated using logistic regression analyses."}, "[2]": {"test": "MORAb-202 population pharmacokinetics (PPK) model", "experimental": "Different dosing regimens were simulated to select a dose of MORAb-202 that would minimize ILD rate while maintaining a high ORR. Stochastic simulations were conducted using the MORAb-202 population pharmacokinetics (PPK) model shown in Table 13 to predict AUC and Cmax for different dosing regimens. […] BW and serum albumin were significant covariates on CL (total clearance) and BW on volume of distribution. Five dosing regimens were simulated: 1) flat dose of 63 mg; 2) BW-based dose of 0.9 mg/kg; 3) BW-based dose of 0.9 mg/kg with a maximum total dose cap of 70 mg; 4) adjusted ideal body weight (AIBW)-based dose of 1.0 mg/kg; and 5) BSA-based dose of 33 mg/m^2 (equivalent to BW-based dose of 0.9 mg/kg). All dosing regimens were simulated on a Q3W treatment cycle."}, "[3]": {"test_system": "platinum resistant ovarian cancer (PROC)", "test": "Dose-response and exposure-response (E-R) analysis for ORR in subjects with PROC", "conditions": "for ORR (%): PROC", "experimental": "MORAb-202 was administered to subjects (N=58) with platinum resistant ovarian cancer (PROC) over a body weight (BW)-based dose range of 0.3 to 1.2 mg/kg. All doses were administered at Q3W. A dose-response assessment was carried out to calculate a relationship between dose and objective response rate (ORR) over this dose range. Clinical pharmacology assessments were conducted to evaluate the dose relationships between MORAb-202 and objective response rates (ORR) or ILD. The dose-response relationships were calculated using logistic regression analyses. An E-R efficacy (ORR) analysis was conducted with PROC subjects (N=58) across the dose range of 0.3 to 1.2 mg/kg Q3W. […] Exposure (AUC) was the only significant predictor of the probability of an objective response in multivariate analysis (as shown in FIG. 1). Age, weight, non-high grade serous OC (versus high grade serous OC), ECOG-PS (1 vs 0), and expansion (versus dose escalation) were not significant predictors of an objective response (OR). Higher doses above 1.2 mg/kg Q3W would be expected to result in a higher probability of an OR, given linear PK and lack of saturation of OR across the current dose range. Based on the results of the E-R analysis, clinically meaningful efficacy is expected across the dose range of 0.68 to 1.2 mg/kg. However, as described in section 1.2.3, an overlapping AUC dependence to ILD is observed."}, "[4]": {"test_system": "subjects with PROC and across tumor types (PROC, EC, TNBC, and NSCLC)", "test": "Exposure-response (E-R) analysis for ILD in subjects with PROC and across all tumor types", "conditions": "N=96 in total (48/96); PROC 0.3 to 1.2 mg/kg Q3W and across tumor types 0.9 to 1.2 mg/kg Q3W", "experimental": "An E-R analysis of ILD was conducted with data from subjects with PROC across the dose range of 0.3 to 1.2 mg/kg Q3W as well as subjects across tumor types (PROC, EC, TNBC, and NSCLC) across the dose range of 0.9 to 1.2 mg/kg Q3W (N=96 in total). Forty-eight subjects had ILD identified by expert review for an ILD rate of 50% (48/96) across both subject groups and dose ranges. AUC and age were significant predictors in multivariate analysis with both higher AUC and higher age predicting a higher probability of ILD. Weight, albumin, ECOG-PS (1 vs 0), Study, and tumor type (OC vs other) were not significant predictors. The probability of ILD by AUC was predicted at the median age (60 years) and plotted along with the observed ILD rate for each exposure quartile (as shown in FIG. 2)."}, "[5]": {"test_system": "subjects with ovarian cancer (OC) and endometrial cancer (EC)", "test": "Preliminary results from Phase 1/2 trial, BSA-based dosing cohorts", "excerpt": "MORAb-202 will be administered as an intravenous (IV) infusion once every 3 weeks (21-day cycle). Treatment will stop upon intolerable toxicity, disease progression, or subject withdrawal for any reason. The Dose-Confirmation part will evaluate the safety and preliminary efficacy of MORAb-202 at selected dose levels in subjects with OC and EC. There will be approximately 30 subjects in the Dose-Confirmation part in 4 study treatment cohorts. If at any time ≥2 Grade ≥3 ILD/pneumonitis (National Cancer Institute Common Terminology Criteria for Adverse Events [NCI CTCAE v5.0]) events are observed, the sponsor will pause enrollment, pending IDMC review. The initial cohort will enroll 6 subjects at 25 mg/m^2 of MORAb-202. The dosing regimen for this study is body surface area (BSA)-based dosing. The dose levels to be used in this portion of the study have been matched to body weight doses of 0.9 mg/kg and 0.68 mg/kg with BSA doses of 33 mg/m^2 and 25 mg/m^2 respectively. The BSA dose equivalents were confirmed using predictions from a MORAb-202 population PK model (described in Example 1). This revised dosing regimen has been implemented in the Dose-Confirmation part of this study due to the potential to reduce the ILD risk in higher body weight subjects whilst using doses within the therapeutic index of MORAb-202. The dose evaluation part of the study was designed with two sequential cohorts at 25 mg/m^2 and 33 mg/m^2. Enrollment has been completed in the two sequential cohorts. A total of 14 subjects were enrolled and treated with MORAb-202 with 7 subjects in each cohort. Further investigation will continue at 25 mg/m^2 Q3W. […] BSA-based dosing decreased the total amount of drug (mg) compared with BW-based estimated total dose in most subjects. Additional testing is planned for every two weeks and for once per week dosing regimens."}, "[6]": {"conditions": "BW-based dose 0.45 mg/kg Q3W, N = 3"}, "[7]": {"conditions": "BW-based dose 1.2 mg/kg Q3W, N = 24"}, "[8]": {"conditions": "PROC subjects (N=58), 0.3 to 1.2 mg/kg Q3W"}, "[9]": {"conditions": "25 mg/m^2 Q3W, preliminary, 7 subjects per cohort"}}}
{"substance": "MORAb-202", "values": [{"measurement": "ILD (%)", "setting": "[1]; BW-based dose 0.3 mg/kg Q3W, N = 3", "value": "0 (0) %"}, {"measurement": "ILD (%)", "setting": "[1]; [6]", "value": "0 (0) %"}, {"measurement": "ILD (%)", "setting": "[1]; BW-based dose 0.68 mg/kg Q3W, N = 6", "value": 16.7, "unit": "%"}, {"measurement": "ILD (%)", "setting": "[1]; BW-based dose 0.9 mg/kg Q3W, N = 46", "value": 37.0, "unit": "%"}, {"measurement": "ILD (%)", "setting": "[1]; [7]", "value": 58.3, "unit": "%"}, {"measurement": "dose proportionality of exposures", "setting": "[2]; PPK analysis", "value": "dose proportional"}, {"measurement": "Inter-Individual Variabilty R CL-V1", "setting": "[2]; final PPK model", "value": 0.577}, {"measurement": "Q, estimate", "setting": "[2]; final PPK model", "value": 0.008039, "unit": "L/h"}, {"measurement": "Residual Additive (SD, ug/mL)", "setting": "[2]; final PPK model", "value": 0.0992, "unit": "µg/mL"}, {"measurement": "V1, estimate", "setting": "[2]; final PPK model", "value": 2.482, "unit": "L"}, {"measurement": "V2, estimate", "setting": "[2]; final PPK model", "value": 1.875, "unit": "L"}, {"measurement": "CL (total clearance), estimate", "setting": "[2]; final PPK model, 2-compartment, IV infusion", "value": 0.01595, "unit": "L/h"}, {"measurement": "BW on V1 (exponent), estimate", "setting": "[2]; final PPK model, covariate", "value": 0.559}, {"measurement": "ORR", "setting": "[3]; PROC subjects (N=58) across the dose range of 0.3 to 1.2 mg/kg Q3W (23/58)", "value": 39.7, "unit": "%"}, {"measurement": "subjects with a CR (complete response)", "setting": "[3]; [8]", "value": 2}, {"measurement": "subjects with a PR (partial response)", "setting": "[3]; [8]", "value": "Twenty-one"}, {"measurement": "ORR (%)", "setting": "[3]; BW-based dose 0.3 mg/kg Q3W, N = 1", "value": "0 (0) %"}, {"measurement": "ORR (%)", "setting": "[3]; [6]", "value": "0 (0) %"}, {"measurement": "ORR (%)", "setting": "[3]; BW-based dose 0.68 mg/kg Q3W, N = 2", "value": 50, "unit": "%"}, {"measurement": "ORR (%)", "setting": "[3]; BW-based dose 0.9 mg/kg Q3W, N = 28, 0.9 mg/kg", "value": 32.1, "unit": "%"}, {"measurement": "ORR (%)", "setting": "[3]; [7]", "value": 54.2, "unit": "%"}, {"measurement": "ILD rate (ILD identified by expert review)", "setting": "[4]", "value": 50, "unit": "%"}, {"measurement": "Mean PK profiles compared with those of a 0.68 mg/kg dose", "setting": "[5]; 25 mg/m^2, MORAb-202, total antibody, and released eribulin", "value": "comparable"}, {"measurement": "anti-tumor activity", "setting": "[5]; [9]", "value": "initial anti-tumor activity"}, {"measurement": "safety", "setting": "[5]; [9]", "value": "Acceptable safety"}]}
